Test results: paper PMC7954794, “Protein context shapes the specificity of SH3 domain-mediated interactions in vivo” (Nature Communications, 2021)

Test system: growth of yeast strains under 51 stress conditions
Assay: Growth assays in 51 stress conditions (Fig. 1E-F, S2D, S5B)
Type: cell-based, Saccharomyces cerevisiae
Design: Sla1 strains growth distance: scale not given here
Conditions: 51 stress conditions, Fig S5B
Outline: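 Colony sizes at 74 h on 51 stress media (37 °C) were log2 transformed, corrected for plate effects, and averaged across two plates as per-plate medians (growth score). Strains arrayed in 12 replicates with WT border, grown first on YPD for two days at 30 °C.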

B1: WT¦WT¦WT (protein, UniProt P32790 1-1244, looked up)
Actin cytoskeleton-regulatory …: MTVFLGIYRAVYAYEPQTPEELAIQEDDLLYLLQKSDIDDWWTVKKRVIGSDSEEPVGLVPSTYIEEAPVLKKVRAIYDYEQVQNADEELTFHENDVFDVFDDKDADWLLVKSTVSNEFGFIPGNYVEPENGSTSKQEQAPAAAEAPAATPAAAPASAAVLPTNFLPPPQHNDRARMMQSKEDQAPDEDEEGPPPAMPARPTATTETTDATAAAVRSRTRLSYSDNDNDDEEDDYYYNSNSNNVGNHEYNTEYHSWNVTEIEGRKKKKAKLSIGNNKINFIPQKGTPHEWSIDKLVSYDNEKKHMFLEFVDPYRSLELHTGNTTTCEEIMNIIGEYKGASRDPGLREVEMASKSKKRGIVQYDFMAESQDELTIKSGDKVYILDDKKSKDWWMCQLVDSGKSGLVPAQFIEPVRDKKHTESTASGIIKSIKKNFTKSPSRSRSRSRSKSNANASWKDDELQNDVVGSAAGKRSRKSSLSSHKKNSSATKDFPNPKKSRLWVDRSGTFKVDAEFIGCAKGKIHLHKANGVKIAVAADKLSNEDLAYVEKITGFSLEKFKANDGSSSRGTDSRDSERERRRRLKEQEEKERDRRLKERELYELKKARELLDEERSRLQEKELPPIKPPRPTSTTSVPNTTSVPPAESSNNNNSSNKYDWFEFFLNCGVDVSNCQRYTINFDREQLTEDMMPDINNSMLRTLGLREGDIVRVMKHLDKKFGRENIASIPTNATGNMFSQPDGSLNVATSPETSLPQQLLPQTTSPAQTAPSTSAETDDAWTVKPASKSESNLLSKKSEFTGSMQDLLDLQPLEPKKAAASTPEPNLKDLEPVKTGGTTVPAAPVSSAPVSSAPAPLDPFKTGGNNILPLSTGFVMMPMITGGDMLPMQRTGGFVVPQTTFGMQSQVTGGILPVQKTGNGLIPISNTGGAMMPQTTFGAAATVLPLQKTGGGLIPIATTGGAQFPQTSFNVQGQQQLPTGSILPVQKTANGLISANTGVSMPTVQRTGGTMIPQTSFGVSQQLTGGAMMTQPQNTGSAMMPQTSFNAVPQITGGAMMPQTSFNALPQVTGGAMMPLQRTGGALNTFNTGGAMIPQTSFSSQAQNTGGFRPQSQFGLTLQKTGGIAPLNQNQFTGGAMNTLSTGGVLQQQQPQTMNTFNTGGVMQELQMMTTFNTGGAMQQPQMMNTFNTDGIMQQPQMMNTFNTGGAMQQPQQQALQNQPTGFGFGNGPQQSRQANIFNATASNPFGF
Q: With B1 as the molecule, how does the “Sla1 strains growth distance” value (distance to ABP1¦WT¦WT) read?
A: Its value is 32.7633.

Q: What about the “Sla1 strains growth distance” value (distance to ABP1¦WT¦WT, listed as WT¦WT¦WT*) of the same molecule?
A: Its value is 32.7344.

Q: And the “Sla1 strains growth distance” value (distance to D¦D¦D)?
A: The value was 13.1994.

Q: What about the “Sla1 strains growth distance” value (distance to D¦D¦D, listed as WT¦WT¦WT*) of the same molecule?
A: Its value is 13.2336.

Q: And the “Sla1 strains growth distance” value (distance to D¦WT¦D)?
A: The value was 4.481.

Q: What about the “Sla1 strains growth distance” value (distance to D¦WT¦D, listed as WT¦WT¦WT*) of the same molecule?
A: The value was 4.3276.

Q: And the “Sla1 strains growth distance” value (distance to D¦WT¦SH3-1)?
A: The value was 9.537.

Q: And the “Sla1 strains growth distance” value (distance to D¦WT¦SH3-1, listed as WT¦WT¦WT*)?
A: Its value is 9.613.

Q: What about the “Sla1 strains growth distance” value (distance to D¦WT¦SH3-2) of the same molecule?
A: Its value is 5.1186.

Q: And the “Sla1 strains growth distance” value (distance to D¦WT¦SH3-2, listed as WT¦WT¦WT*)?
A: The value was 4.955.

Q: What about the “Sla1 strains growth distance” value (distance to D¦WT¦WT) of the same molecule?
A: The value was 4.59.

Q: And the “Sla1 strains growth distance” value (distance to D¦WT¦WT, listed as WT¦WT¦WT*)?
A: The value was 4.434.

Q: What about the “Sla1 strains growth distance” value (distance to SH3-2¦SH3-1¦WT) of the same molecule?
A: The value was 7.002.

Q: What about the “Sla1 strains growth distance” value (distance to SH3-2¦SH3-1¦WT, listed as WT¦WT¦WT*) of the same molecule?
A: Its value is 6.862.

Q: And the “Sla1 strains growth distance” value (distance to SH3-2¦WT¦D)?
A: Its value is 9.252.

Q: And the “Sla1 strains growth distance” value (distance to SH3-2¦WT¦D, listed as WT¦WT¦WT*)?
A: Its value is 9.12.

Q: And the “Sla1 strains growth distance” value (distance to SH3-2¦WT¦WT)?
A: Its value is 2.328.

Q: What about the “Sla1 strains growth distance” value (distance to SH3-2¦WT¦WT, listed as WT¦WT¦WT*) of the same molecule?
A: The value was 2.435.

Q: And the “Sla1 strains growth distance” value (distance to SH3-3¦SH3-1¦D)?
A: The value was 3.781.

Q: And the “Sla1 strains growth distance” value (distance to SH3-3¦SH3-1¦D, listed as WT¦WT¦WT*)?
A: The value was 3.648.

Q: What about the “Sla1 strains growth distance” value (distance to SH3-3¦SH3-1¦SH3-2) of the same molecule?
A: Its value is 4.4511.

Q: And the “Sla1 strains growth distance” value (distance to SH3-3¦SH3-1¦SH3-2, listed as WT¦WT¦WT*)?
A: Its value is 4.2977.

Q: What about the “Sla1 strains growth distance” value (distance to SH3-3¦WT¦D) of the same molecule?
A: The value was 11.8089.

Q: And the “Sla1 strains growth distance” value (distance to SH3-3¦WT¦D, listed as WT¦WT¦WT*)?
A: The value was 11.8591.

Q: And the “Sla1 strains growth distance” value (distance to SH3-3¦WT¦SH3-1)?
A: Its value is 11.5081.

Q: And the “Sla1 strains growth distance” value (distance to SH3-3¦WT¦SH3-1, listed as WT¦WT¦WT*)?
A: The value was 11.5693.

Q: What about the “Sla1 strains growth distance” value (distance to SH3-3¦WT¦WT) of the same molecule?
A: Its value is 11.7278.

Q: What about the “Sla1 strains growth distance” value (distance to SH3-3¦WT¦WT, listed as WT¦WT¦WT*) of the same molecule?
A: The value was 11.7806.

Q: What about the “Sla1 strains growth distance” value (distance to WT*¦WT¦WT) of the same molecule?
A: Its value is 0.6236.

Q: And the “Sla1 strains growth distance” value (distance to WT*¦WT¦WT, listed as WT¦WT¦WT*)?
A: The value was 0.5854.

Q: And the “Sla1 strains growth distance” value (distance to WT¦ABP1¦WT)?
A: The value was 11.3779.

Q: What about the “Sla1 strains growth distance” value (distance to WT¦ABP1¦WT, listed as WT¦WT¦WT*) of the same molecule?
A: The value was 11.4192.

Q: And the “Sla1 strains growth distance” value (distance to WT¦D¦D)?
A: The value was 4.458.

Q: What about the “Sla1 strains growth distance” value (distance to WT¦D¦D, listed as WT¦WT¦WT*) of the same molecule?
A: The value was 4.315.

Q: What about the “Sla1 strains growth distance” value (distance to WT¦D¦SH3-2) of the same molecule?
A: Its value is 5.097.

Q: And the “Sla1 strains growth distance” value (distance to WT¦D¦SH3-2, listed as WT¦WT¦WT*)?
A: The value was 4.943.

Q: And the “Sla1 strains growth distance” value (distance to WT¦D¦WT)?
A: Its value is 5.311.

Q: What about the “Sla1 strains growth distance” value (distance to WT¦D¦WT, listed as WT¦WT¦WT*) of the same molecule?
A: The value was 5.149.

Q: What about the “Sla1 strains growth distance” value (distance to WT¦SH3-1¦D) of the same molecule?
A: Its value is 0.4704.

Q: And the “Sla1 strains growth distance” value (distance to WT¦SH3-1¦D, listed as WT¦WT¦WT*)?
A: The value was 0.4379.

Q: And the “Sla1 strains growth distance” value (distance to WT¦SH3-1¦WT)?
A: Its value is 0.4878.

Q: What about the “Sla1 strains growth distance” value (distance to WT¦SH3-1¦WT, listed as WT¦WT¦WT*) of the same molecule?
A: Its value is 0.5418.

Q: What about the “Sla1 strains growth distance” value (distance to WT¦SH3-3¦D) of the same molecule?
A: Its value is 5.1001.

Q: And the “Sla1 strains growth distance” value (distance to WT¦SH3-3¦D, listed as WT¦WT¦WT*)?
A: The value was 4.947.

Q: And the “Sla1 strains growth distance” value (distance to WT¦SH3-3¦SH3-2)?
A: The value was 5.331.

Q: And the “Sla1 strains growth distance” value (distance to WT¦SH3-3¦SH3-2, listed as WT¦WT¦WT*)?
A: The value was 5.179.

Q: What about the “Sla1 strains growth distance” value (distance to WT¦SH3-3¦WT) of the same molecule?
A: Its value is 4.703.

Q: What about the “Sla1 strains growth distance” value (distance to WT¦SH3-3¦WT, listed as WT¦WT¦WT*) of the same molecule?
A: Its value is 4.556.

Q: What about the “Sla1 strains growth distance” value (distance to WT¦WT*¦WT) of the same molecule?
A: The value was 0.917.

Q: And the “Sla1 strains growth distance” value (distance to WT¦WT*¦WT, listed as WT¦WT¦WT*)?
A: The value was 0.7508.

Q: And the “Sla1 strains growth distance” value (distance to WT¦WT¦ABP1)?
A: The value was 1.932.

Q: What about the “Sla1 strains growth distance” value (distance to WT¦WT¦ABP1, listed as WT¦WT¦WT*) of the same molecule?
A: Its value is 1.926.

Q: And the “Sla1 strains growth distance” value (distance to WT¦WT¦D)?
A: Its value is 0.5681.

Q: What about the “Sla1 strains growth distance” value (distance to WT¦WT¦D, listed as WT¦WT¦WT*) of the same molecule?
A: The value was 0.4359.

Q: And the “Sla1 strains growth distance” value (distance to WT¦WT¦SH3-1)?
A: Its value is 0.5772.

Q: And the “Sla1 strains growth distance” value (distance to WT¦WT¦SH3-1, listed as WT¦WT¦WT*)?
A: Its value is 0.4107.

Q: And the “Sla1 strains growth distance” value (distance to WT¦WT¦SH3-2)?
A: Its value is 0.55.

Q: And the “Sla1 strains growth distance” value (distance to WT¦WT¦SH3-2, listed as WT¦WT¦WT*)?
A: The value was 0.3776.

Q: And the “Sla1 strains growth distance” value (distance to WT¦WT¦WT*)?
A: The value was 0.496.

Q: And the “Sla1 strains growth distance” value (distance to WT¦WT¦WT*, listed as WT¦WT¦WT*)?
A: Its value is 0.

Q: What about the “Sla1 strains growth distance” value (distance to WT¦WT¦WT) of the same molecule?
A: Its value is 0.

Q: What about the “Sla1 strains growth distance” value (distance to WT¦WT¦WT, listed as WT¦WT¦WT*) of the same molecule?
A: Its value is 0.496.
